In patent US20230295297A1:
Substitutions are numbered along the chain they refer to.

T1: mouse TREM2 on cells (mouse), Q99NH8
T1 chain: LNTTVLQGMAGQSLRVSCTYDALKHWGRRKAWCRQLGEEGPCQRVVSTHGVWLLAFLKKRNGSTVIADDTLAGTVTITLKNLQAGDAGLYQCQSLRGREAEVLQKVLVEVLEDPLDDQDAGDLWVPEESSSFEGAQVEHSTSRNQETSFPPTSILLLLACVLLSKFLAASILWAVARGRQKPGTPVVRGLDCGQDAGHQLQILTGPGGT

B1: 6H2 (antibody, IgG2a, V domains shown)
VL: DVLMTQTPLSLPVSLGDQASISCRSSQSIVHSNGNTYLEWYLQKPGQSPKLLIYKVSNRFSGVPDRFSGSGSGTDFTLKISRVEAEDLGVYYCFQGSHVPFTFGSGTKLEIK
VH: QVQLQESGPGLVQPSQSLSIICTVSAFSLTNYAVHWIRQSPGKGLEWLGVIWSGGSTAFNAAFISRLNISKDNSKSQVFFKMNSLQSDDTAIYYCATHYYRSTYAFSYWGQGTLVTVSA
B2: 8A1 (antibody, IgG2a, V domains shown)
VL: DIQMTQSPASLSVSVGETVTITCRTSENVYSNLAWYQQKQGKSPQLLVYAATNLADGVPSRFSASGSATQFSLKINSLQSADFGSYYCHHFWGTPYTFGGGTKLEMN
VH: EVQLQQSGAELVKPGASVKISCKASGYAFSNYWMSWVKQRPGKGLEWIGQIYPGDGDTKYNGKFEGKATLTADKSSSTAYMQLSSLTSEDSAVYFCSREKGADYYGSTYSAWFSYWGQGTLVTVSA
B3: 3A7 (antibody, IgG1, V domains shown)
VL: not shown
VH: EVKLEESGGGLVQPGGSMKLSCAASGFTFSDAWMGWVRQSPEKGLEWVAEIRDKVKNHATYYAESVKGRFTISRDDSKSTVYLQMNTLRADDTGIYYCRLGVFDYWGQGTTLTVSS
modifications: not checked
B4: 9F5 (antibody, IgG1, V domains shown)
VL: DVVMTQTPLSLPVSLGDQASISCRSSQSLVHSNGYTYLHWYLQKPGQSPKLLIYKVSNRFSGVPDRFSGSGSGTDFTLKISRVEADDLGVYFCSQSTRVPYTFGGGTKLEIK
VH: QVQLQQSGPELVKPGASLKISCKASGYAFSSSWMNWVKQRPGKGLEWIGRIYPGDGDTNYNGEFRVRATLTADTSSTTAYMQLSSLTSEDSAVYFCARLLRNQPGESYAMDYWGQGASVTVSS
B5: 9G1 (antibody, IgG1, V domains shown)
VL: B4 VL with V3L, S25F, Y35N, K79R, R82G, D86E, Y101P
VH: QVQLQQSGAELVKPGASVKLSCKASGYIFTTYWIHWVKQRPGRGPEWIGRIDPNNGDTNYNEKFKTKATLTVDKPSSTADMQLSSLTSEDSAVYYCVMTGTDFDYWGQGTTLTVSS
B6: 10A9 (antibody, IgG1, V domains shown)
VL: B1 VL with L3V, S28T, V30I, Q43R, S61C, F101Y, S105G, K108E
VH: QVQLQQSGAEVVKPGASVKMSCKTSGYPFSNFWITWVKQRPGQGLVWIGDIYPGSDNRNFNERFKTKATLTVDTSSSTAYMHLSSLTSEDSAVYFCAREAYYTNPGFAYWGQGTLVTVSA
B7: 3A2 (antibody, IgG1, V domains shown)
VL: B1 VL with L3V, S28T, V30I, Q43R, F101Y, S105G, K108E
VH: B6 VH with V11L, R58S, F60Y, R63K, A120T

What was measured:
[1] = target: recombinant human TREM2-DAP12 fusion protein expressed on cells (human); test: cell-based or functional assay
Sequence of recombinant human TREM2-DAP12 fusion protein expressed on cells (human) (chain, as listed by the source limits assumed, form in doubt): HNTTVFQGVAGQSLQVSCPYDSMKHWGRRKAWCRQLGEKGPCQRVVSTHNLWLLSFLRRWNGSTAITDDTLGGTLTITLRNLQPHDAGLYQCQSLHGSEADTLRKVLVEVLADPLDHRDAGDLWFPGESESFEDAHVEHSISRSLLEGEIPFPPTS

[2] = target: TREM2 protein of the 'Percent APOE binding' column of Table 9B; test: TREM2 binding to APOE with antibody; assay not described for this table
[3] = target: T1, mouse TREM2 on cells (mouse), Q99NH8; test: FACS, WT mouse macrophages
[4] = target: T1, mouse TREM2 on cells (mouse), Q99NH8; test: FACS, BWZmT2 cells
[5] = target: T1, mouse TREM2 on cells (mouse), Q99NH8; test: cell-based or functional assay
[6] = target: T1, mouse TREM2 on cells (mouse), Q99NH8; test: KD cell binding

| Binder | BWZhT2 LUC Plate-bound (FOB) [1] | BWZhT2 LUC Solution (FOB) [1] | BWZhT2 LUC Solution + PS (Δ Bmax) [1] | also measured |
| --- | --- | --- | --- | --- |
| B1 | 1.1 FOB | 3.6 FOB | -40200 |  |
| B2 | 5.46 FOB | 0.35 FOB |  |  |
| B3 |  |  |  | Percent APOE binding [2]: 92.3%; % Positive WT BMMACS [3]: 26.3%; MFI BWZmT2 [4]: 2870 MFI; BWZmT2 LUC Plate-bound (FOB) [5]: 7.8 FOB; BWZmT2 LUC Solution (FOB) [5]: 7.18 FOB; decrease in cell surface level of TREM2 on BMDM (FACS) [5]: 58%; Kd [6]: 5.86 nM |
| B4 | 2.48 FOB | 1.75 FOB | 2930 |  |
| B5 | 1.59 FOB | 1.07 FOB | 2660 |  |
| B6 | 2.18 FOB | 0.31 FOB |  |  |
| B7 | 1.07 FOB | 0.32 FOB |  |  |
